Tests used:
[1] = target: SSBΔC8 (Escherichia coli) (UniProt P0AGE0); test: EMSA; conditions: Buffer 1: 25 mM Tris-HCl, 10 mM Mg acetate, 3 mM K glutamate, pH 7.5, room temperature (TPM: 2 uM RecA, 2 mM ATP, 1 mM DTT, 1 mg/mL BSA); buffer 2: 10 mM Tris …
wtSSB (Escherichia coli) [2] = target: wtSSB (Escherichia coli) (UniProt P0AGE0); test: EMSA; conditions: Buffer 1: 25 mM Tris-HCl, 10 mM Mg acetate, 3 mM K glutamate, pH 7.5, room temperature (TPM: 2 uM RecA, 2 mM ATP, 1 mM DTT, 1 mg/mL BSA); buffer 2: 10 mM Tris …
[3] = target: SSBΔC8 (Escherichia coli) (UniProt P0AGE0); test: SPR; conditions: 10 mM Mg acetate, 3 mM K glutamate, pH 7.5, room temperature (TPM: 2 uM RecA, 2 mM ATP, 1 mM DTT, 1 mg/mL BSA)
wtSSB (Escherichia coli) [4] = target: wtSSB (Escherichia coli) (UniProt P0AGE0); test: SPR; conditions: 10 mM Mg acetate, 3 mM K glutamate, pH 7.5, room temperature (TPM: 2 uM RecA, 2 mM ATP, 1 mM DTT, 1 mg/mL BSA)
[5] = buffer 1, 0.005% Tween-20, Buffer 1: 25 mM Tris-HCl, buffer 2: 10 mM Tris …
[6] = buffer 2 (10 mM Tris, 0.1 mM Na3EDTA, pH 8.1), 0.005% Tween-20, Buffer 1: 25 mM Tris-HCl

Substance	Kd [1]	Kd (wtSSB (Escherichia coli) [2])	Kd [3, 5]	Kd [3, 6]	Kd (wtSSB (Escherichia coli) [4]; [5])	Kd (wtSSB (Escherichia coli) [4]; [6])
55 nt ssDNA overhang (EMSA)	13.9 nM	4.04 nM	–	–	–	–
55 nt ssDNA overhang (SPR)	–	–	4.7 nM	89.1 nM	24 nM	145 nM
